Numbering of substitutions follows the chain as printed. Numbers in names are those of the source.
T1: Human CLEC-7A (Dectin-1) (human, UniProt Q9BXN2-2 66-201, limits assumed)
T1 construct: Bought protein; also called C-type lectin domain family 7 member A
T1 sequence (looked up): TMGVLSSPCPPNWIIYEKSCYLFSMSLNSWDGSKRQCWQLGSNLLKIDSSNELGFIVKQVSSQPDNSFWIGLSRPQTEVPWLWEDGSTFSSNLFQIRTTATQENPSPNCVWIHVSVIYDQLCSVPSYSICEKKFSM

T2: Human CLEC-1A (human, UniProt Q8NC01 74-280, limits assumed)
T2 construct: Bought protein; also called C-type lectin domain family 1 member A
T2 sequence (looked up): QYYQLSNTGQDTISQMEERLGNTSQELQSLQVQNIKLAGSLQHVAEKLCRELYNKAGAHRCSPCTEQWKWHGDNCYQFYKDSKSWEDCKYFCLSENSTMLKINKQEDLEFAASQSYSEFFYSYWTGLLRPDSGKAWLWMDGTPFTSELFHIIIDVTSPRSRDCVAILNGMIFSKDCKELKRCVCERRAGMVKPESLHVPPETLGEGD

T3: Human CLEC-4L (DC-SIGN) (human, UniProt Q9NNX6 62-404)
T3 construct: Bought protein; also called C-type lectin domain family 4 member L
T3 sequence (looked up): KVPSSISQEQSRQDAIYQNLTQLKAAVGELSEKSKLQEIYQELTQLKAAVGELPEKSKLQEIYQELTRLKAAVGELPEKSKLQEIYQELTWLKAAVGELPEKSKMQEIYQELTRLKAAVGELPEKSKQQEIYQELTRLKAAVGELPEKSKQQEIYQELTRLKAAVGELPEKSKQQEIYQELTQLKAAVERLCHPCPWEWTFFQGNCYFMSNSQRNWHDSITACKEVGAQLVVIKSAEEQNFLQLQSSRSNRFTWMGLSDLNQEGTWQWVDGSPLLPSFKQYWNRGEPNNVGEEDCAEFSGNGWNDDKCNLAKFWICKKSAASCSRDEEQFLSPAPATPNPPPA

T4: Human SR-A1 (MSR) (human, UniProt P21757 77-451)
T4 construct: Bought protein; also called Macrophage scavenger receptor types I and II
T4 sequence (looked up): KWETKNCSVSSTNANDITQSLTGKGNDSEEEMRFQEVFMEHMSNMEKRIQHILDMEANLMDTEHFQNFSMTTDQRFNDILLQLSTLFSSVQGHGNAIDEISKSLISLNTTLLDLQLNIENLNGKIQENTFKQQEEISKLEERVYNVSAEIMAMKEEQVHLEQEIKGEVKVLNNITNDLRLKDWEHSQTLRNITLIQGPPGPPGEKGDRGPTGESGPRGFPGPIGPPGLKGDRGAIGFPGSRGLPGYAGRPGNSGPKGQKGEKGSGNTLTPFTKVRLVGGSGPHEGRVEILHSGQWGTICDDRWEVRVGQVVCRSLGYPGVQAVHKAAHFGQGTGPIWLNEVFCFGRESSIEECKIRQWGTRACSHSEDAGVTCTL

B1: LX6960073_gl IgG1-TM (antibody, V domains shown)
VH: EVQLVESGGGLVQPGRSLRLSCAASGFTSDDYAMHWVRQAPGKGLEWVSGISWNSGSIGYADSVKGRFTISRDNAKNSLYLQMNGLRAEDTAVYYCAREGSWNYDALDIWGQGTMVTVSS
VL: QSALTQPASVSGSPGQPITISCTGTSSDVGGYNYVSWYQQHPGKAPKLMIYDVSKRPSGVSNRFSGSKSGNTASLTISGLQAEDEADYYCMGGMGRSTNWVFGGGTKLTVL
notes: Whole human IgG1-TM, germlined
B2: LX6960073_G82bS_gl IgG1-TM (antibody, V domains shown)
VH: B1 VH with G85S
VL: B1 VL
notes: Whole human IgG1-TM, germlined, with heavy chain G82bS (Kabat); also called LOX10696_73
B3: LX5140110 IgG1-TM (antibody, V domains shown)
VH: QVQLVQSGAEVKKPGASVKVSCKVSGYTLTELSMHWVRQAPGKGLEWMGGFDPEDFKYHTHQKFQGRVTMTEDTSTDTAYMELSSLRSEDTAVYYCALVWGTQGKGVRGWDYYYGMDVWGQGTTVTVSS
VL: QSVVTQPPSVSGAPGQRVTISCTGSSSNIGAGYDVHWYQQLPGTAPKLLIYGNSNRPSGVPDRFSGSKSGTSASLAITGLQAEDEADYYCQSYDSSLSGWVFGGGTKLTVL
notes: Whole human IgG1-TM (L234F/L235E/P331S); also called LOX514110; LOX514_110
B4: LX5140093_N>D IgG1-TM (antibody, V domains shown)
VH: B3 VH with F56W, K57A, T60Q, H61A, L98T, V99P, W100D, T102Q
VL: B3 VL with L97H, S98R, G99A, V101A
notes: Whole human IgG1-TM; Heavy chain N96D (Kabat) variant of LX5140093; also called LX5140093_D
B5: LX5140108 IgG1-TM (antibody, V domains shown)
VH: B3 VH with F56W, K57S, Y58N, T60V, H61S, A97L, L98T, V99S, W100T, T102R
VL: B3 VL
notes: Whole human IgG1-TM (L234F/L235E/P331S)
B6: LX5140092_N>D IgG1-TM (antibody, V domains shown)
VH: B3 VH with F56W, T60L, H61S, L98T, V99P, W100D, Q103H, G104Q, K105G
VL: B3 VL
notes: Whole human IgG1-TM; Heavy chain N96D (Kabat) variant of LX5140092; also called LX5140092_D

Legend:
Human CLEC-7A (Dectin-1) = target: T1, Human CLEC-7A (Dectin-1); test: IgG binding ELISA on coated antigen, absorbance at 450 nm;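 note: specificity panel of related human receptors, coated alongside human LOX1 as the binding positive control, with an isotype human IgG1-TM antibody setting the nonspecific background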
Human CLEC-1A = target: T2, Human CLEC-1A; test: as above
Human CLEC-4L (DC-SIGN) = target: T3, Human CLEC-4L (DC-SIGN); test: as above
Human CLEC-1B (CLEC-2) = target: T5, Human CLEC-1B (CLEC-2) (human, UniProt Q9P126 58-229, limits assumed); test: as above
T5 construct: Bought protein; also called C-type lectin domain family 1 member B
T5 sequence (Q9P126 58-229 limits assumed): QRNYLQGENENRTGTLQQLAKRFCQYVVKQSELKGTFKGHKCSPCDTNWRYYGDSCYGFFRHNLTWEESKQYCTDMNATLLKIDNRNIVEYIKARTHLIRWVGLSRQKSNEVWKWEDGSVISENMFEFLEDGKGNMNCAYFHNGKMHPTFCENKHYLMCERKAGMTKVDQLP

Human SR-A1 (MSR) = target: T4, Human SR-A1 (MSR); test: as above
Human SR-B3 (CD36) = target: T6, Human SR-B3 (CD36) (human, UniProt P16671 30-439); test: as above
T6 construct: Bought protein; also called Platelet glycoprotein 4
T6 sequence (P16671 30-439 limits assumed): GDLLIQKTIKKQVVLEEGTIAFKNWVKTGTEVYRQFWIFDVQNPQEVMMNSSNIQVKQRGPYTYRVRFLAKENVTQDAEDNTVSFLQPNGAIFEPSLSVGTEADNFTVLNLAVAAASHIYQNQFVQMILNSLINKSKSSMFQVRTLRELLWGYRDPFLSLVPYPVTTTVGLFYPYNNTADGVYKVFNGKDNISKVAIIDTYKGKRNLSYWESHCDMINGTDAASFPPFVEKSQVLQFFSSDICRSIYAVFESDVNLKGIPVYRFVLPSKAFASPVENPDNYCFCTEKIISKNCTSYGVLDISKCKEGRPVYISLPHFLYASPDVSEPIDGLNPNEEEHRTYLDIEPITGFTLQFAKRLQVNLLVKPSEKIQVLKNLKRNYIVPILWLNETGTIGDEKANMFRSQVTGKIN

[1] = target: T7, mouse LOX1-(FlagHis) extracellular domain (mouse, UniProt Q9EQ09 55-363); test: IgG binding ELISA on coated antigen, europium anti-human IgG detection
T7 construct: extracellular domain
T7 sequence (Q9EQ09 55-363): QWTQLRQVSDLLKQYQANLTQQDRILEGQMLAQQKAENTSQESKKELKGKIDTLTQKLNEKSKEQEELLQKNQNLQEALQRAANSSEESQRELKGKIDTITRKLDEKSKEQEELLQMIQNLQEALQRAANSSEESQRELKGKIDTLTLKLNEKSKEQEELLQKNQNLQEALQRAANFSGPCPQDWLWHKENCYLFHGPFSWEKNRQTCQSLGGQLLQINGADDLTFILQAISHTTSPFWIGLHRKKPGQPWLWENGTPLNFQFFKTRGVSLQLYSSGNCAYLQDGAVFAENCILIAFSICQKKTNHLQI

[2] = target: T8, rat LOX1-(FlagHis) extracellular domain (rat, UniProt O70156 55-364); test: as above
T8 construct: extracellular domain
T8 sequence (O70156 55-364): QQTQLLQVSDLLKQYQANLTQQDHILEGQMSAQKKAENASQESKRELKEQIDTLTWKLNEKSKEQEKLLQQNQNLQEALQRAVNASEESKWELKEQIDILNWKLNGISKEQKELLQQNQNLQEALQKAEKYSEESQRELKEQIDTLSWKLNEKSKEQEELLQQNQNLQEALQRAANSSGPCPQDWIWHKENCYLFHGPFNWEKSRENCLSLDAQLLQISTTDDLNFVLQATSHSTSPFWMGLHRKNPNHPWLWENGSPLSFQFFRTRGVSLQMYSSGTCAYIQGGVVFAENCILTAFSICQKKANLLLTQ

[3] = target: T9, rabbit LOX1-(FlagHis) extracellular domain (rabbit, UniProt Q9XTA8 55-274); test: as above
T9 construct: extracellular domain
T9 sequence (Q9XTA8 55-274): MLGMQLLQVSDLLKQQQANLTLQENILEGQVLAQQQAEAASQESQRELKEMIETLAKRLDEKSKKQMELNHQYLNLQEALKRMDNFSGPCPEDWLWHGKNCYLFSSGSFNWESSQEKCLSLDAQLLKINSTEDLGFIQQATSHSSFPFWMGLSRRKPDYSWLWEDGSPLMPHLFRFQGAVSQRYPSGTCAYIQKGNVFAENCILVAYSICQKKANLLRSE

[4] = target: T10, human LOX1 on cells (human LOX1 transfected CHO TREX cells) (human, UniProt P78380 1-273); test: cell-based or functional assay
[5] = target: T10, human LOX1 on cells (human LOX1 …); test: competition with DyLight 649 oxLDL on hLOX1 CHO TREX cells (FMAT), mean
[6] = target: T10, human LOX1 on cells (human LOX1 …); test: competition with DyLight 649 AGE-BSA on hLOX1 CHO TREX cells (FMAT), mean
[7] = target: T11, recombinant human LOX1 (R&D Systems) (human, UniProt P78380 61-273); test: competition with biotin CRP on immobilised recombinant hLOX1 (DELFIA), mean
[8] = target: T12, human LOX1 SNP K167N variant on cells (K167N SNP transfected CHO TREX cells) (human, UniProt P78380 1-273); test: competition with DyLight 649 oxLDL on K167N hLOX1 CHO TREX cells (FMAT), mean
T12 construct: whole, on cells; also called hLOX1 K167N; K167N hLOX1 CHO

[9] = target: T10, human LOX1 on cells (human LOX1 …); test: competition with DyLight 649 oxLDL on human LOX1 CHO TREX cells, FMAT
[10] = target: T10, human LOX1 on cells (human LOX1 …); test: competition with DyLight 649 AGE-BSA on human LOX1 CHO TREX cells, FMAT
[11] = target: T11, recombinant human LOX1 (R&D Systems); test: competition with biotin CRP on plate-bound recombinant human LOX1, DELFIA
[12] = target: T12, human LOX1 SNP K167N variant on cells …; test: competition with DyLight 649 oxLDL on human LOX1 K167N CHO TREX cells, FMAT
[13] = target: T13, cynomolgus LOX1-(FlagHis) extracellular domain (cynomolgus monkey, UniProt A0A2K5VQ73 76-291); test: Biacore, antibody captured on protein G, LOX1 ECD as analyte
T13 construct: extracellular domain; Made in HEK293 EBNA cells; also called cynoLOX1; cyLOX

[14] = target: T10, human LOX1 on cells (human LOX1 …); test: competition with DyLight 649 oxLDL on hLOX1 CHO TREX cells (FMAT), mean; mean of n = 3

Binder | binding result (Human CLEC-7A (Dectin-1)) | binding result (Human CLEC-1A) | binding result (Human CLEC-4L (DC-SIGN)) | binding result (Human CLEC-1B (CLEC-2)) | binding result (Human SR-A1 (MSR)) | binding result (Human SR-B3 (CD36)) | binding result [1] | binding result [2] | binding result [3] | ROS ASSAY (IC50, mean) [4] [nM] | oxLDL/hLOX1 CHO Internalisation (IC50, mean) [4] [nM] | IC50 [6] [nM] | IC50 [7] [nM] | IC50 [8] [nM] | IC50 (read off the curve) [9] [nM] | IC50 (read off the curve) [11] [nM] | IC50 (read off the curve) [12] [nM] | further results
B1 | no binding | no binding | no binding | no binding | no binding | no binding | no binding (tested: 10 µg/mL (single concentration)) | no binding (tested: 10 µg/mL (single concentration)) | no binding (tested: 10 µg/mL (single concentration)) | – | – | – | – | – | – | – | – | –
B2 | no binding | no binding | no binding | no binding | no binding | no binding | no binding (tested: 10 µg/mL (single concentration)) | no binding (tested: 10 µg/mL (single concentration)) | no binding (tested: 10 µg/mL (single concentration)) | 2.21 | 0.38 | 0.0177 | 3 | 0.105 | ~0.8 | ~3 | ~0.3 | IC50 [5]: 0.02 nM; IC50 (read off the curve) [10]: ~0.02 nM
B3 | no binding | no binding | no binding | no binding | no binding | no binding | no binding (tested: 10 µg/mL (single concentration)) | no binding (tested: 10 µg/mL (single concentration)) | binds | 1.98 | 0.312 | 0.0207 | 5.02 | 0.492 | ~1 | ~5 | ~0.4 | Kd [13]: 0.154 nM; koff [13]: 0.000168 s⁻¹; kon [13]: 1.09e+06 M⁻¹ s⁻¹; IC50 [14]: 0.105 nM
B4 | no binding | no binding | no binding | no binding | no binding | no binding | no binding (tested: 10 µg/mL (single concentration)) | no binding (tested: 10 µg/mL (single concentration)) | no binding (tested: 10 µg/mL (single concentration)) | – | – | – | – | – | – | – | – | –
B5 | no binding | no binding | no binding | no binding | no binding | no binding | no binding (tested: 10 µg/mL (single concentration)) | no binding (tested: 10 µg/mL (single concentration)) | binds | – | – | – | – | – | – | – | – | –
B6 | no binding | no binding | no binding | no binding | no binding | no binding | no binding (tested: 10 µg/mL (single concentration)) | no binding (tested: 10 µg/mL (single concentration)) | binds | – | – | – | – | – | – | – | – | –

Source: patent US20210347900A1 (AstraZeneca / MedImmune, published 2021)
